Each binder was assayed against IL-17A (agonist in the IL-17RA/IL17RC dimerization assay) (UniProt Q16552 24-155) (assay: cell-based or functional assay).
IL-17A (agonist in the IL-17RA/IL17RC dimerization assay), sequence (Q16552 24-155 limits assumed): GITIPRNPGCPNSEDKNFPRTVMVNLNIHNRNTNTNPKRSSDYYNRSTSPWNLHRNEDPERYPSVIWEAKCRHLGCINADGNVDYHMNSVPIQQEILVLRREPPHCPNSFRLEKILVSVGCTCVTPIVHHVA

IC50 in IL-17RA/IL7RC dimerization assay | Binder
< 1 µM | Ac-RRRRRRRRVMVTIPADLYEWIEE-NH2 [peptide of SEQ ID NO: 29]
< 1 µM | Ac-VPGAGVMVTIPADLYEWIEE-NH2 [peptide of SEQ ID NO: 35]
< 10 µM | Ac-VEFNFPQQVYEWFDD-NH2 [peptide of SEQ ID NO: 255]
< 10 µM | Ac-VHVSIPQELWEWVRR-NH2 [peptide of SEQ ID NO: 230]
< 10 µM | Ac-VRFSVPQEIYEWVRR-NH2 [peptide of SEQ ID NO: 251]
< 0.5 µM | Ac-VHVTIPQDLWEWVRR-NH2 [peptide of SEQ ID NO: 115]
< 10 µM | Ac-VRVTVPQELWEWVRR-NH2 [peptide of SEQ ID NO: 235]
< 1 µM | Ac-VMVTIPADLYEWIEEVPGKG-NH2 [peptide of SEQ ID NO: 26]
< 10 µM | Ac-VRVTIPQELWEWVRR-NH2 [peptide of SEQ ID NO: 233]
< 1 µM | Ac-GGKETWWETWVMVTIPADLYEWIEE-NH2 [peptide of SEQ ID NO: 33]
< 1 µM | Ac-VMVTIPADLYEWIEERQIKIWFQNRRMKWKK-NH2 [peptide of SEQ ID NO: 28]
< 10 µM | Ac-LRISVPLEIFEWLQH-NH2 [peptide of SEQ ID NO: 252]
< 10 µM | Ac-VRGYVPADLWDWINK-NH2 [peptide of SEQ ID NO: 242]
< 10 µM | Ac-IHVTIPGEIFEWLQH-NH2 [peptide of SEQ ID NO: 250]
< 10 µM | Ac-LRIYVPADLWDWINK-NH2 [peptide of SEQ ID NO: 241]
< 10 µM | Ac-VHVTVPQELFEWVEE-NH2 [peptide of SEQ ID NO: 228]
< 10 µM | Ac-VHFTVPQELYEWVRR-NH2 [peptide of SEQ ID NO: 238]
< 10 µM | Ac-VHVSVPQELWEWVRR-NH2 [peptide of SEQ ID NO: 231]
< 10 µM | Ac-IHVTIPLEIFEWLQH-NH2 [peptide of SEQ ID NO: 246]
< 10 µM | Ac-IHVTIPLEVFEWLQH-NH2 [peptide of SEQ ID NO: 249]
< 10 µM | Ac-VRVTVPQELYEWVRR-NH2 [peptide of SEQ ID NO: 234]

IC50 in IL-17RA/IL7RC dimerization assay | Binder
< 1 µM | Ac-VMVTIPADLYEWIEEGGTWWTEWSQ-NH2 [peptide of SEQ ID NO: 22]
< 0.5 µM | Ac-VHVTIPADLYEWVRR-NH2 [peptide of SEQ ID NO: 118]
< 0.4 µM | Ac-VMVTIPADLYEWIEE-NH2 [peptide of SEQ ID NO: 18]
< 1 µM | Ac-VPGKGVMVTIPADLYEWIEE-NH2 [peptide of SEQ ID NO: 36]
< 0.4 µM | Ac-VMVTIPADLYEWIRR-NH2 [peptide of SEQ ID NO: 17]
< 1 µM | Ac-VMVTIPADLYEWIEEVPGWG-NH2 [peptide of SEQ ID NO: 24]
< 1 µM | Ac-VMVTIPADLYEWIEEARKKAAKA-NH2 [peptide of SEQ ID NO: 21]
< 10 µM | Ac-TWYVFNEQHQEYVRK-NH2 [peptide of SEQ ID NO: 257]
< 1 µM | Ac-VMVTIPADLYEWIEETWWETWW-NH2 [peptide of SEQ ID NO: 23]
< 10 µM | Ac-VHVTVPQEIYEWVRR-NH2 [peptide of SEQ ID NO: 236]
< 10 µM | Ac-VHVSVPQELYEWVRR-NH2 [peptide of SEQ ID NO: 232]
< 0.5 µM | Ac-VHVTIPAELWEWVRR-NH2 [peptide of SEQ ID NO: 111]
< 0.5 µM | Ac-VHVTIPADFWEWVRR-NH2 [peptide of SEQ ID NO: 117]
< 1 µM | Ac-VMVTIPADLYEWIEEVPGAG-NH2 [peptide of SEQ ID NO: 27]
< 1 µM | Ac-ARKKAAKAVMVTIPADLYEWIEE-NH2 [peptide of SEQ ID NO: 31]
< 10 µM | Ac-VRLYVPADLWDWINK-NH2 [peptide of SEQ ID NO: 244]
< 1 µM | Ac-VMVTIPADLYEWIEERRR-NH2 [peptide of SEQ ID NO: 20]
< 1 µM | Ac-VPGWGVMVTIPADLYEWIEE-NH2 [peptide of SEQ ID NO: 34]
< 1 µM | Ac-VMVTIPADLYEWIEERRRRRR-NH2 [peptide of SEQ ID NO: 19]
< 1 µM | Ac-GGTWWTEWSQVMVTIPADLYEWIEE-NH2 [peptide of SEQ ID NO: 32]
< 0.5 µM | Ac-VHVTFPADLWEWVRR-NH2 [peptide of SEQ ID NO: 114]

IC50 in IL-17RA/IL7RC dimerization assay | Binder
< 10 µM | Ac-LRISVPADLWDWINK-NH2 [peptide of SEQ ID NO: 240]
< 0.5 µM | Ac-VHFTIPADLWEWVRR-NH2 [peptide of SEQ ID NO: 112]
< 10 µM | Ac-IHVTIPLEIFEWLQR-NH2 [peptide of SEQ ID NO: 248]
< 10 µM | Ac-VKISVPLEIFEWLQH-NH2 [peptide of SEQ ID NO: 254]
< 10 µM | Ac-VHVTIPQEIWEWVRR-NH2 [peptide of SEQ ID NO: 237]
< 10 µM | Ac-VHVTVPQELYEWVEE-NH2 [peptide of SEQ ID NO: 229]
< 1 µM | Ac-VMVTIPADLYEWIEEGGKETWWETW-NH2 [peptide of SEQ ID NO: 25]
< 10 µM | Ac-VRAYVPADLWDWINK-NH2 [peptide of SEQ ID NO: 243]
< 10 µM | Ac-VKISVPADLWDWINK-NH2 [peptide of SEQ ID NO: 239]
< 0.5 µM | Ac-VHVQIPADLWEWVRR-NH2 [peptide of SEQ ID NO: 113]
< 10 µM | Ac-IHVTIPLEIFEWAQH-NH2 [peptide of SEQ ID NO: 247]
< 0.5 µM | Ac-VHVTIPANLWEWVRR-NH2 [peptide of SEQ ID NO: 116]
< 10 µM | Ac-VEFNFPQQVYEWVRR-NH2 [peptide of SEQ ID NO: 256]
< 1 µM | Ac-VMVTIPADLYEWIEERRRRRRRR-NH2 [peptide of SEQ ID NO: 30]
< 10 µM | Ac-VHVTVPQELWEWVEE-NH2 [peptide of SEQ ID NO: 227]
< 0.4 µM | Ac-IMVTIPADLWDWINK-NH2 [peptide of SEQ ID NO: 3]
< 10 µM | Ac-LRGSVPLEIFEWLQH-NH2 [peptide of SEQ ID NO: 253]
< 10 µM | Ac-VRIYLPADLWDWINK-NH2 [peptide of SEQ ID NO: 245]
< 0.1 µM | Ac-IHVTIPAELWDWINK-NH2 [peptide of SEQ ID NO: 5]
